Assay: label from the status in PepcDB records

Row | Sequence | protein production
1 | MHNKKWDLRIICAHAFTILIWGSAFPAIRMGLASYTPEHLTLLRLLIASFILLLFSFIYKLRIPDLKDIPAIFIFGALGFTFYHIALNYGEKTVNAGSASLIVSVTPIVTAILASIFLNEKMKLNGWIGGGISFIGIALISFSQGDAIQLNSGGFFILLAAISESLYFVFQTSYLKKYGFLPFTIYTILSSTVCMLIFFPGMYTEILAAPLEVNMSVIYLGLFPTVLPYIALAYIISHSGAAEATSSLYLTPVTACFVAWIWLGEVPTFVSIIGGGITILGILIVHIPVLRKEKHRNLANNQSV | failed
2 | MNPIVKAPTLNDLPAPPPGKTGWPWTEQNEALPEKMPDGSDWPKISIVTPSYNYGQFIEETIRSVLLQGYPNLEYIVVDGGSTDNTVTIIRKYEKYLKYWASEPDHGQTDAINKGYRYCSGDVFAWLNADDLYYDQSTLLKVINFYQKGYDLIVGECLNINADGTHFNQAITSTEKSDPTYFKKYLRYWSSGFLPQPAIFVKKEMADQCFPLSIELYYAMDFQFFLRVLNQEPKSVWIQEKLTRLRWHEDSKTMGTISRIDFHAIVPEPEVHKVALAEAENLPTWLEKIFFRIQAFDYLSLQPYINSLDNFHWLQITKTIVKRPTLAVWPLFWKIFFRSLLGEQIYKLLKRTIRTNLEHHHHHH | not failed
3 | NQPKRALRYNKRFMGDRRYMSFWSWLTTGNFVNKEFSYYKVPMELDVFDQDAFAESGVPFYVVATDIKTGKPDYIKIDHVFEQMEALRASSALPLVSEIVEYKGKRYMDGGLADSLPI | failed
4 | MLTQFLNLLATIISVISLLIVTYGALIAIISFIINELKRVTGAYTPTNIRKLRAVFGTYLLLGLEFLIASDILKTVLEPTMNELIILGGIVVVRTILSVFLNKEIKELETENN | failed
5 | AQSDGWSPKDHNLIKSVREDGRFLSSYGVVHAMLRNTEPRYAFHRDFSPKEFRKWQKGLRHAMEEIMKFPQIKNSPAPVCIKREQREGYRLEKWEFYPLPKCVSTFLVLIPDNINKPVPAILCIPGSGGNKEGLAGEPGIAPKLNDRYKDPKLTQALNFVKEGYIAVAVDNPAAGEASDLERYTLGSNYDYDVVSRYLLELGWSYLGYASYLDMQVLNWMKTQKHIRKDRIVVSGFSLGTEPMMVLGTLDTSIYAFVYNDFLCQTQERAEVMTMPDKNGRRPFPNSIRHLIPDFWKNFNFPDIVAALAPRPIILTEGGLDRDLDLVRKAYAIVGTPDNVKIYHYKKFSDPDTRKNVEYLPEGLDRNEYFRMVNVDGPNHYFKSELVVPWLRKLLEER | not failed
6 | MLLVGVAIAFLHKYIVLVVLTSILITACQGDIIDNPNLESNVPQSTDCRVVEHAVGKTKICGKPKKIAVLEPKMLSLMLALDVQPAAYADAYLVNAPQFDNPSQQIPYLGKYVTSQPINLGDRSSPSLEALTLLKPDLILGLNYQDNQLFSAIAPTVFIDNEQNWQESIKIVAKALDSQKNIPSIITSQQQQLAKVRAQLESLVSTHPRVLNIVCSQLMDYIEVTYNGNTIEILEKIGFQPVFLPDIERKPGLRPQITLETLAQLDADIVIVNTWVDNWNGKSTYTVPLKELKQKWAKNPLLHNSQAWKEGRVYFVDYTLWGNVIGAPIANALILEQLPSLLLSNTLKP | failed
7 | YCVRGEKLVLFVTGVCPRNCFYCPLSPWRRKDVAYANERPIRKIEDIIEEAKIQEARGAGVTGGDPLARLNRTVEYIRTLKEEFGKKFHIHLYTTGILADKRALSMLYDAGL | failed
8 | MARSSSFLDNLLTSPSTERYRVGLSVLFLLCVWLVVGSFSQGLPNAMLLMAAAVIGGYMAINIGANDVANNVGPAVGSGALSLGAAVLLAAVFEAAGALIAGGDVVSTIKGGIIDPTSLEDPRAFVWLMTAALLAGALWLNLATWMGAPVSTTHSIVGGVLGAGIAAGGWAIADWAVMGKIAASWVISPVLGGALAALFLFAIKKTVLYRQNLVSSARTFVPWLVAIMAWAFATYLMIKGVKKIVKVDMVEASVIGLIVAGVVFFVMRTLVGRKASTMENSAQGVNTLFTWPLIFAAALLSFAHGANDVANAIGPLAAINDAIQAGGGVVTSAKIPLWVMLVGALGLAVGLMLFGPRLIKTVGSEITELDKTRAFCIALSAALTVILASQLGLPVSSTHIAIGGVFGVGFLREYLKSNYATQLHKIIEQHDPTDQERLKPFLDDFRNASVEEMEKLLKQAKKKKQQVPLSKSERKRLKKIYREEMVKRSHLVKIAAAWIITVPASAIMAAFLFFTLRGLMV | failed
9 | MAVGFFAQVIDGALGMAYGITATTFLLSAGATPAAASASVHIAEVFTTGFSGISHVKLGNVNKSLFLRLLLPGMIGAVLGAVLITRFDGHQLKPFISAYLLLMGLYILSKAYRHVIKRRAPRHVAKLALFGGFVDAAGGGWGPVVTSSLIGSGSDPRTTIGSVNFAEFFLTIASATSFILLAGQPDTWKMVAGLVFGGLFAAPFAALLCKKLSPRTLLVIVGTLITLISAYNIYIGLR | failed
10 | MKTTTIFTAALLACLSAPAHAQDLRGSEAGAVMKRESDVRDYYELQQRLKESRESRPEEAVTDRTEPAPQPPADGGQRVFISHIVTDPSEILTEDDLRQVVAPLEGKEVSIRELLAMVDRINDLYRQKGYLTARAVLPPQKVERGTVRIRLVEGRVGRISVGGNRHTRDWFVTSRLHLREGDLVRLDTLENDLFRFNAINDVKLRAEVKPGTATGTTDLILRTQEPDNYRVVAFADNGGGRYIGQERLGLTLQDLSLLGIRDPLTVGGTVADGTLSAHASYSLPLTPVGTRLGVTYDYTSIWITSGPFESLDVDGTSSDLGLTLSQPFALSPALSVTTFAGFNWKKSTTDFGGDTIFENRTRTLTLGGDLLAIDGYGTWFTRHVLTQGFHDFGGDRSFFKYNGDLVRTFILPDDFSALVRASGQVSGNHLLPSSEQFQLGGIATVRGFYEGLLIGDDGYFVSAELTLPLFPADASVYDVRLSPLLRGAIFFDHGGAFPYKGSGESIDHNDFLSSAGFGFILNLAKYLTGRIDFGFPVGERDPDPGTVRVHFSLSSEIL | failed
11 | MVRLDLPWDLVDEILSRLPATSLGRLRFTCKRWNALFKDPEFITKQFHKAAKQDLVLMLSNFGVYSMSTNLKEIPNNIEIAQVFHCNGLLLCSTEEGNKTKLVVVNPCTGQTRWIEPRTDYNYNHDIALGYGNNSTKKSYDSYKILRITYGCKLVEIFELKSNSWRVLSKVHPNVEKHYYGGVSFKGNTYWLSYTKFNILSFDFTTETFRSVPLPFLYQDGFVTLALSVVREEQLLLLRSRFDMGQVGIWMCNKIDTETVLSWSKSFTLEFDSLRDLPVMSILRIFIEEDKKVIVVDCDDRWKENMIYIVGKNGFKKLSYEKDRSNLWRLPFFFSYVPSLVGLYPPM | failed
12 | MARESRTNPRAAGRNALGARRFWFVSLAGIVLASGYDILQALQGSAAAAQRLVVPVLLLLWLYRGSDWARWILMVMLLGFGVLNMYLGTGMLRYGVQNWLHIYVFSAFMVATGLYLALAGKDFARYRSHVAARRARRAASQG | failed
13 | MLLLWLVVLVIGAAYLTHRRLAPLQILGIVAAYVLLMGIFSSAPGWLLALIWVVLALKIALVALPQWRRKLFTAPVFRWFQRTLPPMSQTEREAIDAGTVWWDGELFSGRPDWRTLLAYPAPKLTEEEQAFIDGPTEALCAMVSDWQIGQDLDLPPEAWAHIKQHGFFALIIPKEYGGKGFSAYAHSQVAMKLATRSGDLASTVMVPNSLGPAELLLHYGTDEQRNRYLPRLARGEEIPCFALTGPLAGSDAGAMPDTGIICKGQWQGEEVIGLRLNWEKRYITLGPVATLLGLAFKAYDPDHLLGEQEELGISLALIPTDTPGVEIGKRHLPLGAAFMNGPNSGKDVFVPLDFLIGGQAMLGKGWMMLMNCLSVGRSISLPAVGTGAAKYTSLVTGQYANIREQFNVPLAAFEGIQESLARIGGNAWLMDSARLLTAKAVDLGEKPSVLSAILKYHLTERGRECIQHAMDVHGGKGIIMGPNNYLGRNWQGAPIFITVEGANILSRNLMIFGQGAIRCHPFVLKEMALAGREDHDQALKEFDDLLMKHILFAAGNAASTLVYGLGLGRFERVPGDALSQGYFRALNRQAAAFAMMADLSMMLLGGALKRRERLSARLGDVLSYLYLASAALKRYHDQGSPEYLQPLLRWAMEESLGQTERALDRLLDNFPNRFVGCALRVLVFPFGRRHKGPGDELDAEVAELIGRRKGDPALEELLAGCYRPQAEHDPVADLQRASDLLEDTAQLSKALYQAVKEGKVQPAPGQSGIDAAVKAGVLQPDDGQRLHEAEQARRKVIDVDAFDKAQLLAVPGKVR | failed
14 | MPLVLDLARPVSEEELRRLSELNPGYQWERSPEGRLWVSPTGGESGRRSLQLAYQLARWNEERGLGVVFDSSTGFKFPDGSILSPDAAFVERGAWEALSEAEREGFPPLAPKAVFEVRSASQDPEELRAKMGIYLRNGVLLGVLVDPYARAVEVFRPGKPPLRLEGVERVSLDPELPGFALSLPPLW | not failed
15 | MVKTMAKKKAVKVLRKQKKRETLRRFTQKQNIGRACLTAQEFRLLQRMSHSSKALRNVGLYTMKQSYLNHNKMATVKEVDIAMQADMNYWGIQSNSLQAIRRALFTEVKSFFKALEKWKKNPEKFTGRPKFPNYSHSTDKRIIEIYQVPKVDENGFWMIPMSVAFRKKFGSIKIRMPKNLRNKNISYIEIVPKQKGRFFEVHYTYEMHVSQMKKQPMTTSNALGCDLGVDRLVSCVTNTGDAFLIDGKKLKSINQYFNKTIRNLQQKNVENGLSKRIVTNKIAALWHKRERQIHGYIAQTVGLLFKKVKEFDIDTIVVGYNAGWKQNSHMGKKNNQKFVQIPFHKLIAAIENKCIKEGIRFFKQEESYTSKASFLDKDPVPVWSKDDRTQYRFSGKRITRGLYQSKAGTCIHADINGALNTLQKSQVVELDGNLKVKTPILLEVQKRKAVASRIALEHHHHHH | failed
16 | MMKQNPILITGGTGTVGSRIASRLIKLGYRVRIASRKKGALADAEYVYFNWKYASSFTPALEQVKQIYLVAPVGVFDPAPYVLPFLKEAKRLGAKRVVMQSASVVSENGPVFGALHQAVREFPEWTVLRPSYFMQNFINVQHRMSIQTEGRITTASGEGKLGFIDADDIAETAVRALIDDVPHQTHHILTGPEALSYAEAAEIIGAAAGRRVEHVSISRSELQHKMEAGGLPADYAHFMAKLDEAISHGAEHRVTDTVKRVTGKEPRSLSEFAAAHAAYWTSFWTELEHHHHHH | failed
17 | MAASPKDPLDWAALLQLQMDEAFDFILRSEAGSVAECDLSPPVDIFETPDAFSVEFDLPGTDPADLSLKLCCNMLILEGVKRDDSREGGSYLCLERRFGRFCRTVEIPPTVDVSAVRADYRRGVLTVTFPRLSDRRKVMRDIPIIQGDN | failed
18 | MSLVLVDHPRPGVALITLNRPERMNSMAFDVMVPLKEALQKVTYDNAVRVVVLTGAGRGFSSGADHKSAGTVPHVEGLTRPTYALRSMEILDEVILALRRLHQPVIAAVNGPAIGGGLCLALAADIRVASTSAYFRAAGINNGLTASELGLSYLLPRAIGSSRAFEIMLTGRDVTAEEAERIGLVSCQVPEEQLLDTCYAIAARIAAFSRPGIELTKRTLWSGLDAGSLEGHMQAEGLGQLFVRLLTANFEEAVAARAERRPPVFTDDK | failed
19 | MSLDMSPVQGKLDGRIRAQNPEEFLERLSQEYHFQWFVYNDTLYVSPSSEHTSARIEVSPDAVDDLQTALTDVGLLDKRFGWGSLPDEGVVLVRGPAKYVEFVRDYSKKVEKPDEKADKQDVVVLPLKYANAADRTIRYRDQQLVVAGVASILQELLESRSRGESIDSVNLLPGQGSSVANSTGVAAAGLPYNLGSNGIDTGALQQGIDRVLNFNSKKTAKGHASGKANIRVSADVRNNSVLIYDLPERKAMYQKLVKELDVPRNLIEIDAVILDIDRNELAELSSRWNFNAGSVGGGANLFDAGTSSTLFLQNASKFSAELHALEGNGSASVIGNPSILTLENQPAVIDLSRTEYLTATSERAADILPITAGTSLQVIPRSLDNDGKPQVQMIVDIEDGQIDVSTINDTQPSVRRGNVSTQAVIAEHGSLVIGGFHGLEANDRIHKIPLLGDIPYIGKLLFQSRSRELSQRERLFILTPRLIGDQVNPARYVQNGNPHDVDDQMKKIKERRDGGELPTRGDIQKVFTQMIDGAAPEGLRAGQTLPFETDSLCDPGEGLTLDGQRSQWFVKKDWGVAVVVARNNTDKPVRIDESRCGGRWVIGVAAWPHAWLQPGEESEVYIAVRQPQISKMAKESRPSLLRGAKP | failed
